Consider four molecules from patent US20220064322A1 (JACOBIO PHARMACEUTICALS, published 2022).

Changes are numbered by the printed parent chain.

Experiment [1] deals with T1, human CD73 ecto-domain recombinant protein (huCD73) (human, UniProt P21589 27-547).
T1 construct: also called soluble huCD73; soluble recombinant CD73
T1 sequence: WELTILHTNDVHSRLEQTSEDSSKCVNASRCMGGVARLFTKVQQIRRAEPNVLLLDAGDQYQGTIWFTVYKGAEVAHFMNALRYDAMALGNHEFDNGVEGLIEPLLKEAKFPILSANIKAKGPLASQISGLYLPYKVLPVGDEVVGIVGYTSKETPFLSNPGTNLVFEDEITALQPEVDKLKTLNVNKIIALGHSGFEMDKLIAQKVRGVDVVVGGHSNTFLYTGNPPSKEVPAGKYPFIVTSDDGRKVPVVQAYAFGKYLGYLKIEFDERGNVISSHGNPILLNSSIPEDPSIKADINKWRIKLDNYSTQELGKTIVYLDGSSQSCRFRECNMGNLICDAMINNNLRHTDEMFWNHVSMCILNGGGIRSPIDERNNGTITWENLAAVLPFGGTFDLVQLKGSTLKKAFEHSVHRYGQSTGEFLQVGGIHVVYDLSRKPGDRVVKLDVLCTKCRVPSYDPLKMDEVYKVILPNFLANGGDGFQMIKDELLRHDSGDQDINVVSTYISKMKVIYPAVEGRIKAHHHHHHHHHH
Kind of experiment: indirect ELISA, coated soluble huCD73. The protocol: (§1) The indirect ELISA method was applied to evaluate the binding ability of each positive clone to soluble huCD73 protein. Soluble huCD73 was coated, and gradient diluted samples were incubated, then HPR-labeled secondary antibody was added, finally TMB was added to develop the color, and OD450 was read after termination.
(§2) 1 ug/ml of recombinant CD73 protein was coated on ELISA plates (Coning), incubate overnight at 4° C. The next day, wash 5 times in PBS and blocked with 200 ul/well 2% skimmed milk, a certain dose range of CD73 antibodies were incubated for 1 h at room temperature. Wash 5 times with PBST washing buffer (PBS, 0.05% Tween 20), add HRP-conjugated goat anti-mouse IgG (H+L) (Promega) and incubate at room temperature for 1 h to detect bound anti-CD73 antibodies; wash the plate 5 times again and add TMB (Life Technologies) for color development for 5 to 10 min; finally the reaction was stopped by adding 1N HCl, and the OD value was measured at 450 nm. GraphPad Prism software was used to generate data graphs and statistical affinity data.
A general note: In an ELISA, binding on a coated surface is turned into a signal by an enzyme label.

Experiment [2] concerns the target T2, cynomolgus CD73 on the cell surface (293T/17-cynoCD73 cells) (cynomolgus (Macaca fascicularis), UniProt P21589 27-547 (human entry)).
T2 chain: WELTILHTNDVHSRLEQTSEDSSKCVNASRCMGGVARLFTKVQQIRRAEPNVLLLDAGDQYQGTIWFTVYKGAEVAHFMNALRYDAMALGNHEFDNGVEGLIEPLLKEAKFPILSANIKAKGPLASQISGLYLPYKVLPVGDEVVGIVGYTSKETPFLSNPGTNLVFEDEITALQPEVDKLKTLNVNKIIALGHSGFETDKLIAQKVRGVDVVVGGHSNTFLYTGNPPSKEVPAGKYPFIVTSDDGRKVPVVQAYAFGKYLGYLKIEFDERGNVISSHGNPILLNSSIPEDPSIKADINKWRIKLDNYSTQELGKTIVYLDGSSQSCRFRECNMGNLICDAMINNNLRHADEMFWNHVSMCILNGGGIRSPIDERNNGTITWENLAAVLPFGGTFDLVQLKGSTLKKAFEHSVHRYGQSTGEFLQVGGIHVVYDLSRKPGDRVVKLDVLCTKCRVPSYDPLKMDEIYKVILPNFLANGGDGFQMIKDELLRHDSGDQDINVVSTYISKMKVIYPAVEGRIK
Nature of the experiment: cell-based or functional assay.

Experiment [3] has as its target T1, human CD73 ecto-domain recombinant …. Nature of the experiment: indirect ELISA, coated soluble huCD73, curve fit. The protocol:
as §1, §2

Experiment [4] has the same target. Kind of experiment: indirect ELISA, coated soluble huCD73, HRP-labelled secondary antibody, OD450. The protocol:
as §1, §2

For experiment [5] the target is unchanged. Kind of experiment: cell-based or functional assay.

B1: S1B5 (antibody, human IgG1, kappa, V domains shown)
VH: EVQLKESGAELVKPGASVKISCKATGYTFTGYWIEWVKQRPGRGLEWIGEILPGSDITNYNEKFKGKATITADTSSNTAYMQLSSLTTEDSAIYYCARRGYDETGYAMDYWGQGTSVTVSS
VL: DIVMTQSPASLAVSLGQRATISCKASQSVDYDGDSYMNWYQQKPGQPPKLLIHAASNLESGIPARFSGSGSGTDFTLNIHPVEEEDAAVYFCQQSKEVPWTFGEGTKLEIKR
notes: Phage antibody, chimeric human IgG1 / human kappa full chains
Usually EC50 stands for the concentration needed to bring the measured effect to its halfway point. By EC50 (read off the curve) is commonly meant the midpoint of the concentration-response curve. Regarding B1, the EC50 in experiment [1] came to 0.085 nM. Moreover, the “IC50, blockade of 5'exonuclease activity on 293T/17-Cyno CD73 cells” value (“IC50, blockade of 5'exonuclease activity” for short) in experiment [2] turned out to be 0.085 nM. Also, in experiment [3], the Bottom was determined as 0.007 OD450 and the Top came to 2.93 OD450. Also, the concentration giving a half-maximal response (EC50 (read off the curve)) in experiment [4] is approximately 0.08 nM. In experiment [5], the “Bottom (lower plateau of the fitted curve), blockade of soluble huCD73 enzyme activity (AMP hydrolysis, luciferase/CellTiter-Glo)” value stood at 16.2; the “IC50, blockade of soluble huCD73 enzyme activity (AMP hydrolysis, luciferase/CellTiter-Glo)” value was determined as 3.26 nM; the “Top (upper plateau of the fitted curve), blockade of soluble huCD73 enzyme activity (AMP hydrolysis, luciferase/CellTiter-Glo)” value turned out to be 99.5.

B2: 191C3A8B9 (antibody, mouse IgG1, kappa, V domains shown)
VH: QVQLKESGPGLVAPSQSLSITCTVSGFSLTNYGVHWVRQPPGKGLEWLGVIWAGGSTNYNSALMSRLSISKDNSKSQLFLKMNSLQADDTAMYYCARERGSSWGTMDYWGQGTSVTVSS
VL: QIVLTQSPAIMSASPGEKVTMTCSASSRVSYMHWYQQKSGTSPKRWIYDTSQLASGVPARFSGSGSGTSYSLTISSMEAEDAATYYCQQWSSNPYTFGGGTKLEMRR
notes: Hybridoma antibody, mouse IgG1 / mouse kappa full chains
As for B2, the EC50 in experiment [1] was 0.279 nM. Further, the “IC50, blockade of 5'exonuclease activity” value in experiment [2] is 0.001 nM. In addition, in experiment [3], the Bottom stood at 0.0498 OD450 and the Top was 2.75 OD450. Also, in experiment [4], the “EC50 (read off the curve)” value is approximately 0.04 µg/mL. In addition, in experiment [5], the “Bottom (lower plateau of the fitted curve), blockade of soluble huCD73 enzyme activity (AMP hydrolysis, luciferase/CellTiter-Glo)” value was determined as 5.55; the “IC50, blockade of soluble huCD73 enzyme activity (AMP hydrolysis, luciferase/CellTiter-Glo)” value turned out to be 2.41 nM; the “Top (upper plateau of the fitted curve), blockade of soluble huCD73 enzyme activity (AMP hydrolysis, luciferase/CellTiter-Glo)” value amounted to 93.7.

B3: 66F2A8D6 (antibody, mouse IgG1, kappa)
heavy: QVHLQQSGAELAKPGASVNLSCKASGYAFTSYWMHWVKQRPGQGLEWIGYINPSSGLAKYNQKFKDKATLTTDKSSNTAYMQLSSLTYDDSAVYYCGRWLLSAWFAYWGQGTLVTVSAAKTTPPSVYPLAPGSAAQTNSMVTLGCLVKGYFPEPVTVTWNSGSLSSGVHTFPAVLQSDLYTLSSSVTVPSSTWPSETVTCNVAHPASSTKVDKKIVPRDCGCKPCICTVPEVSSVFIFPPKPKDVLTITLTPKVTCVVVDISKDDPEVQFSWFVDDVEVHTAQTQPREEQFNSTFRSVSELPIMHQDWLNGKEFKCRVNSAAFPAPIEKTISKTKGRPKAPQVYTIPPPKEQMAKDKVSLTCMITDFFPEDITVEWQWNGQPAENYKNTQPIMDTDGSYFVYSKLNVQKSNWEAGNTFTCSVLHEGLHNHHTEKSLSHSPGK
light: DIKMTQSPSSIYASLGERVTITCKASQGINTYLSWFQQKPGKSPKTLIYRANILVDGVPSRFSGSGSGQDYSLTINSLEYEDMGIYYCLQYDEFPYTFGGGTKLEIKRADAAPTVSIFPPSSEQLTSGGASVVCFLNNFYPKDINVKWKIDGSERQNGVLNSWTDQDSKDSTYSMSSTLTLTKDEYERHNSYTCEATHKTSTSPIVKSFNRNEC
notes: as for B2
Take B3: the EC50 in experiment [1] amounted to 0.153 nM. Also, in experiment [2], the “IC50, blockade of 5'exonuclease activity” value was determined as 0.077 nM. Further, in experiment [3], the Bottom came to 0.165 OD450 and the Top stood at 3.11 OD450. Further, the concentration giving a half-maximal response (EC50 (read off the curve)) in experiment [4] was approximately 0.2 nM. In experiment [5], the “Bottom (lower plateau of the fitted curve), blockade of soluble huCD73 enzyme activity (AMP hydrolysis, luciferase/CellTiter-Glo)” value was 6.36; the “IC50, blockade of soluble huCD73 enzyme activity (AMP hydrolysis, luciferase/CellTiter-Glo)” value is 1.96 nM; the “Top (upper plateau of the fitted curve), blockade of soluble huCD73 enzyme activity (AMP hydrolysis, luciferase/CellTiter-Glo)” value worked out at 86.1.

B4: 94A12G11F2 (antibody, mouse IgG1, kappa)
heavy: B3 heavy with H3Q, N19K, A28T, L57Y, A58T, Y60S, T72A, N77S, D89E
light: B3 light with K3R, I11M, G28D, T46S, A51S, N76S, E93D
notes: as for B2
Consider B4, for which the concentration giving a half-maximal response (EC50) in experiment [1] amounted to 0.242 nM. The “IC50, blockade of 5'exonuclease activity” value in experiment [2] was 0.006 nM. Further, in experiment [3], the Bottom worked out at 0.0566 OD450 and the Top worked out at 2.94 OD450. Further, the concentration for a half-maximal effect (EC50 (read off the curve)) in experiment [4] is approximately 0.2 nM. In experiment [5], the “Bottom (lower plateau of the fitted curve), blockade of soluble huCD73 enzyme activity (AMP hydrolysis, luciferase/CellTiter-Glo)” value turned out to be 6.21; the “IC50, blockade of soluble huCD73 enzyme activity (AMP hydrolysis, luciferase/CellTiter-Glo)” value is 1.5 nM; the “Top (upper plateau of the fitted curve), blockade of soluble huCD73 enzyme activity (AMP hydrolysis, luciferase/CellTiter-Glo)” value is 87.8.
